From PMC10398351, “Structural and molecular insight into antibody recognition of dynamic neoepitopes in membrane tethered MUC1 of pancreatic cancer cells and secreted exosomes†” (RSC Chemical Biology, 2023)

Experiments:
PANC-1 cell surface MUC1 = biological target: T1, PANC-1 cell surface MUC1 (Homo sapiens, PANC-1 cells, UniProt P15941, O-glycans ST, T and/or Tn at the Thr of the Asp-Thr-Arg region, as the paper concludes); experiment: flow cytometry on cells; PANC-1 cells with Alexa 488 conjugated SN-131, 2 h on ice in PBS/EDTA, without or with 10 μM MUC1-5ST (8); conditions: one partner purified
T1 construct: MUC1, type 1 single-pass transmembrane mucin, endogenous in the human pancreatic cancer cell line PANC-1 (ATCC CRL-1469); also called endogenous MUC1 TRD; membrane-tethered MUC1; source: endogenous, on PANC-1 cells
T1 sequence (P15941 24-1255): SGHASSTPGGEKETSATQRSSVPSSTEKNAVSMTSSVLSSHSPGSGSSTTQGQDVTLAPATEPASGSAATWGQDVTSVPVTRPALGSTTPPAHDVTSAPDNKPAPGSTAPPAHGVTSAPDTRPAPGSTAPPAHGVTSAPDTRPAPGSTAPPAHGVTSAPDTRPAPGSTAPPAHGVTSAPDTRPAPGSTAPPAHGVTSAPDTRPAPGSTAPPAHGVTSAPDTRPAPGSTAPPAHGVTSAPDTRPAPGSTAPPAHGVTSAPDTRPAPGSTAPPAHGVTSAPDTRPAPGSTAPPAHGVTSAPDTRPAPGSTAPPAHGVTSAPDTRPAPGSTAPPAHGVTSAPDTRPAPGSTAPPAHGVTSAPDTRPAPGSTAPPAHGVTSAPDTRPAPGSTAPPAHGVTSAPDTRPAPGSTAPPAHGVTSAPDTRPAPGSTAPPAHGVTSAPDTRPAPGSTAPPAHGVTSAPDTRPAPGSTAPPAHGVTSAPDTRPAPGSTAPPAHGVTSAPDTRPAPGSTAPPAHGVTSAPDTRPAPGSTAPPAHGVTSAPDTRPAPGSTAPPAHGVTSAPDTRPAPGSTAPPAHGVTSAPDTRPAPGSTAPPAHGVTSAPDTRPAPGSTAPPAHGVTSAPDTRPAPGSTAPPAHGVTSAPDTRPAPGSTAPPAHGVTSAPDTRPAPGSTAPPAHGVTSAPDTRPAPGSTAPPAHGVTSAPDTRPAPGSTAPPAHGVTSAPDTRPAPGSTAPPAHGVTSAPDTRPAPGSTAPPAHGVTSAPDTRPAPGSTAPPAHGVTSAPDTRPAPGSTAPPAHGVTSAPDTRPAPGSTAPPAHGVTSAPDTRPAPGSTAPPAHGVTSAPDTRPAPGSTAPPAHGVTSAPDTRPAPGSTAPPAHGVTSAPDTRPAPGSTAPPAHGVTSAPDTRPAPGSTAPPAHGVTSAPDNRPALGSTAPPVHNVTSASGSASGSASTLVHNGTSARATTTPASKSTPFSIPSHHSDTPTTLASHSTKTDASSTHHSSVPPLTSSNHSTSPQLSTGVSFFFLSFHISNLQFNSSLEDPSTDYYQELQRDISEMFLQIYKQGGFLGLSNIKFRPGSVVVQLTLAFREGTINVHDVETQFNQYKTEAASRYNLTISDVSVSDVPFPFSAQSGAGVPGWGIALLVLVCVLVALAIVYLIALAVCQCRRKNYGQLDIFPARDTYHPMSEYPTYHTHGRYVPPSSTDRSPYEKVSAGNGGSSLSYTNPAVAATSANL

[1] = biological target: T2, MUC1 TRD on exosomes released from PANC-1 cells (Homo sapiens, PANC-1 exosomes, UniProt P15941); experiment: ELISA; sandwich: exosomes from PANC-1 cells captured by coated anti-CD9 or anti-CD63 mAb, detected with AP-labelled SN-131 (1 μg/mL), room temperature; conditions: one partner purified
T2 construct: also called exosomal MUC1 TRD-STs; cargo MUC1 TRD; source: endogenous, exosomes isolated by ultracentrifugation from PANC-1 culture supernatant
T2 sequence (P15941 24-1255): as above

| binding result (PANC-1 cell surface MUC1) | binding result [1] | Binder |
| --- | --- | --- |
| binds |  | Alexa488-conjugated SN-131 (antibody, V domains shown, as the heavy chain of m1; Fab chains in PDB 8HRH; as the light chain of m1; IgG2a) VH: QVQLQQSGAELARPGASVKLSCKASGYTFTNYGLSWVKQRTGQGLEWIGENHPGSGIIYHNEKFRGKATLTADKSSSTAYVQLSSLTSEDSAVYFCARSSGTRGFAYWGQGTLVTVSA VL: DVLMTQTPLSLPVSLGDQASISCRSSQSIVHSNGNTYLEWYLQKPGQSPKLLIYKVSNRFSGVPDRFSGSGSGTDFTLKISRVEAEDLGVYYCFQGSHGPWTFGGGTKLEIK |
|  | binds | AP (alkaline phosphatase) labelled SN-131 mAb (antibody, V domains shown, as the heavy chain of m1; Fab chains in PDB 8HRH; as the light chain of m1; IgG2a) VH: QVQLQQSGAELARPGASVKLSCKASGYTFTNYGLSWVKQRTGQGLEWIGENHPGSGIIYHNEKFRGKATLTADKSSSTAYVQLSSLTSEDSAVYFCARSSGTRGFAYWGQGTLVTVSA VL: DVLMTQTPLSLPVSLGDQASISCRSSQSIVHSNGNTYLEWYLQKPGQSPKLLIYKVSNRFSGVPDRFSGSGSGTDFTLKISRVEAEDLGVYYCFQGSHGPWTFGGGTKLEIK |
